Six molecules from patent US20090175866A1, “TREATMENT OF B-CELL MALIGNANCIES” (priority 2004, published 2009) can be followed below.

The target of assay [1] is T1, FGFR3 (Homo sapiens, UniProt P22607). Description: Affinity and Koff to FGFR3 measured by BIAcore. Format: binding. For orientation: Surface plasmon resonance follows binding to a sensor surface in real time, without labels.
Assay [2] has as its target T1, FGFR3. Put plainly: FGFR3 domain specificity of binding.

T1 sequence (P22607 23-806): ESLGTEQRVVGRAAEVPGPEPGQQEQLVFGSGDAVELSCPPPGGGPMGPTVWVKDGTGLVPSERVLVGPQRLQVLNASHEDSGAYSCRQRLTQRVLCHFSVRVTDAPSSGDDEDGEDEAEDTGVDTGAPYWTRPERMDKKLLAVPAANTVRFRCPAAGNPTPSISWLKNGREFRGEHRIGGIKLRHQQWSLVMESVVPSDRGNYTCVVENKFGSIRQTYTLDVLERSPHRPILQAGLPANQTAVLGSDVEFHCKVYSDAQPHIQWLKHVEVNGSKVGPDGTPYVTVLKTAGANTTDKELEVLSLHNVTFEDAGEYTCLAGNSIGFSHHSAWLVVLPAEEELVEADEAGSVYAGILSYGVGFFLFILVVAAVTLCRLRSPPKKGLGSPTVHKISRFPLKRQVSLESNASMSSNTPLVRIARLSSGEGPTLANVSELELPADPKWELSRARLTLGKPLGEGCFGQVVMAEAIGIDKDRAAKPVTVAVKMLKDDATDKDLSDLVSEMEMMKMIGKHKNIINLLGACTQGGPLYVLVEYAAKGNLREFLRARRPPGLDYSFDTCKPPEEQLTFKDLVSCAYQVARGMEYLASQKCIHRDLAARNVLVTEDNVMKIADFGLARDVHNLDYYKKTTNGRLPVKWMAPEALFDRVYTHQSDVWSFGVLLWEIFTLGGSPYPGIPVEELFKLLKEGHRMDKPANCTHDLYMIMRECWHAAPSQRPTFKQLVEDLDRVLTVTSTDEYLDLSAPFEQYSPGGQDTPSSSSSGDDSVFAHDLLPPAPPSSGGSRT

B1: PRO-029: HuCAL anti-FGFR3 clone; VH-CDR3 SEQ ID NO:7, VL-CDR3 SEQ ID NO:16 (antibody, V domains shown)
VH: QVQLVQSGAEVKKPGASVKVSCKASGYTFTSYYMHWVRQAPGQGLEWMGWINPNSGGTNYAQKFQGRVTMTRDTSISTAYMELSSLRSEDTAVYYCARTWQYSYFYYLDGGYYFDIWGQGTLVTVSS
VL: DIVLTQSPATLSLSPGERATLSCRASQSVSSSYLAWYQQKPGQAPRLLIYGASSRATGVPARFSGSGSGTDFTLTISSLEPEDFATYYCQQTNNAPVTFGQGTKVEIKRT
One may read the Kd as the constant that tells how readily two partners part at equilibrium. High values mean lower affinity, low ones higher affinity. B1 yielded a Kd in assay [1] of 6 nM. Further, the “FGFR3 Domain Specificity” value in assay [2] turned out to be 3c.

B2: PRO-012: HuCAL anti-FGFR3 clone; VH-CDR3 SEQ ID NO:3, VL-CDR3 SEQ ID NO:12 (antibody, V domains shown)
VH: QVQLKESGPALVKPTQTLTLTCTFSGFSLSTSGVGVGWIRQPPGKALEWLALIDWDDDKYYSTSLKTRLTISKDTSKNQVVLTMTNMDPVDTATYYCARYHSWYEMGYYGSTVGYMFDYWGQGTLVTVSS
VL: DIELTQPPSVSVAPGQTARISCSGDALGDKYASWYQQKPGQAPVLVIYDDSDRPSGIPERFSGSNSGNTATLTISGTQAEDEADYYCQSYDFDFAVFGGGTKLTVLGQ
The molecule B2 showed a Kd in assay [1] of 14 nM. For the same molecule, in assay [2], the “FGFR3 Domain Specificity” value came to 2.

B3: PRO-054: HuCAL anti-FGFR3 clone; VH-CDR3 SEQ ID NO:8, VL-CDR3 SEQ ID NO:17 (antibody, V domains shown)
VH: QVQLVQSGAEVKKPGASVKVSCKASGYTFTSYYMHWVRQAPGQGLEWMGWINPNSGGTNYAQKFQGRVTMTRDTSISTAYMELSSLRSEDTAVYYCARNMAYTNYQYVNMPHFDYWGQGTLVTVSS
VL: DIELTQPPSVSVAPGQTARISCSGDALGDKYASWYQQKPGQAPVLVIYDDSDRPSGIPERFSGSNSGNTATLTISGTQAEDEADYYCQSYDYFKLVFGGGTKLTVLGQ
B3 came in with a Kd in assay [1] of 3.7 nM. For the same molecule, the “FGFR3 Domain Specificity” value in assay [2] is on record as 3c.

B4: PRO-026: HuCAL anti-FGFR3 clone; VH-CDR3 SEQ ID NO:6, VL-CDR3 SEQ ID NO:15 (antibody, V domains shown)
VH: QVQLVQSGAEVKKPGASVKVSCKASGYTFTSYYMHWVRQAPGQGLEWMGWINPNSGGTNYAQKFQGRVTMTRDTSISTAYMELSSLRSEDTAVYYCARGYWYAYFTYINYGYFDNWGQGTLVTVSS
VL: DIALTQPASVSGSPGQSITISCTGTSSDVGGYNYVSWYQQHPGKAPKLMIYDVSNRPSGVSNRFSGSKSGNTASLTISGLQAEDEADYYCQSYDNNSDVVFGGGTKLTVLGQ
In turn, B4 gave a Kd in assay [1] of 4 nM. In addition, the “FGFR3 Domain Specificity” value in assay [2] is recorded as 3c.

B5: PRO-055: HuCAL anti-FGFR3 clone; VH-CDR3 SEQ ID NO:9, VL-CDR3 SEQ ID NO:18 (antibody, V domains shown)
VH: QVQLVQSGAEVKKPGASVKVSCKASGYTFTSYYMHWVRQAPGQGLEWMGWINPNSGGTNYAQKFQGRVTMTRDTSISTAYMELSSLRSEDTAVYYCARSMNSTMYWYLRRVLFDHWGQGTLVTVSS
VL: DIALTQPASVSGSPGQSITISCTGTSSDVGGYNYVSWYQQHPGKAPKLMIYDVSNRPSGVSNRFSGSKSGNTASLTISGLQAEDEADYYCQSYDMYNYIVFGGGTKLTVLGQ
In turn, B5 registered a Kd in assay [1] of 2.9 nM. The “FGFR3 Domain Specificity” value in assay [2] came out at 3c.

B6: PRO-002: HuCAL anti-FGFR3 clone; VH-CDR3 SEQ ID NO:2, VL-CDR3 SEQ ID NO:11 (antibody, V domains shown)
VH: QVQLVQSGAEVKKPGASVKVSCKASGYTFTSYYMHWVRQAPGQGLEWMGWINPNSGGTNYAQKFQGRVTMTRDTSISTAYMELSSLRSEDTAVYYCARDFLGYEFDYWGQGTLVTVSS
VL: DIELTQPPSVSVAPGQTARISCSGDALGDKYASWYQQKPGQAPVLVIYDDSDRPSGIPERFSGSNSGNTATLTISGTQAEDEADYYCQSYDYSADYVFGGGTKLTVLGQ
B6: the Kd in assay [1] was determined as 37 nM. Moreover, the “FGFR3 Domain Specificity” value in assay [2] is 2.
